Assay results published in patent US20110028686A1 (published 2011).
Where two headings read alike, the source gives them in different places. Square brackets hold non-standard residues; d marks the D form. Ends that are not written are not given here. pS = N[C@@H](COP(=O)(O)O)C(=O)O

Tests used:
[1] = target: T1, Human recombinant Bcl-2 (1-205), soluble GST-fusion (Santa Cruz Biotechnology) (human, UniProt P10415 1-205); assay: fluorescence emission titration, fluorescein-labelled peptide + serially diluted Bcl-2, 4 C, PBS
T1 construct: Bought; also called GST-Bcl-2; not shown: glutathione S-transferase (GST) fusion partner

[2] = target: carbonic anhydrase II (Sigma); assay: fluorescence emission titration, fluorescein-labelled peptide + carbonic anhydrase II, PBS
Target sequence in this assay (chain, as listed by the source): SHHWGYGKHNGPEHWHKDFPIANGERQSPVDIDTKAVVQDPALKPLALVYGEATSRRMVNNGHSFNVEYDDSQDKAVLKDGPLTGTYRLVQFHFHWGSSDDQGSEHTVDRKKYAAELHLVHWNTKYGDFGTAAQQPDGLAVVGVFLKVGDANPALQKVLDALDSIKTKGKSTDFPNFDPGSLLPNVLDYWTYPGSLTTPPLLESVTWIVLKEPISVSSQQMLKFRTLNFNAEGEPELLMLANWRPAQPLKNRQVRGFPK

[3] = target: T1, Human recombinant Bcl-2 (1-205), …; assay: fluorescence emission titration with Bcl-2
calmodulin (Sigma) [4] = target: T2, calmodulin (Sigma) (UniProt P62157 2-149); assay: fluorescence emission titration, fluorescein-labelled peptide + calmodulin (HEPES, KCl, CaCl2 buffer)
[5] = target: carbonic anhydrase II (Sigma); assay: FP, 50 nM fluorescein-labelled peptide titrated with carbonic anhydrase II, 25 C
Target sequence in this assay (P00921 2-260): as the sequence (chain, as listed by the source) above

HisKIX [6] = target: T3, HisKIX (UniProt P45481 586-672); assay: FP with HisKIX
T3 construct: range 586-672; the residue numbers fit mouse CBP; also called His-tagged CBP KIX domain; CBP KIX; not shown: amino-terminal hexahistidine tag and linker of pET15b

calmodulin (Sigma) [7] = target: T2, calmodulin (Sigma); assay: FP; specificity ratio
calmodulin (Sigma) [8] = target: T2, calmodulin (Sigma); assay: FP, 50 nM fluorescein-labelled peptide titrated with calmodulin, 25 C
calmodulin (Sigma) [9] = target: T2, calmodulin (Sigma); assay: FP with calmodulin
[10] = target: carbonic anhydrase II (Sigma); assay: FP, 50 nM fluorescein-labelled peptide titrated with carbonic anhydrase II, 25 C; remark: listed apart in the source
Target sequence in this assay (chain, as listed by the source): as above

calmodulin (Sigma) [11] = target: T2, calmodulin (Sigma); assay: FP with calmodulin (text value; Table 2 prints 52 ± 12)
CBP KIX Q661A [12] = target: T4, CBP KIX Q661A (UniProt P45481 586-665, limits assumed); assay: FP, 25 nM fluorescein-labelled ligand titrated with CBP KIX variant, 25 C
T4 construct: domain: KIX

CBP KIX I660A [13] = target: T5, CBP KIX I660A (UniProt P45481 586-665, limits assumed); assay: as above
T5 construct: domain: KIX; also called 1660A

CBP KIX Y658A [14] = target: T6, CBP KIX Y658A (UniProt P45481 586-665, limits assumed); assay: as above
T6 construct: domain: KIX

CBP KIX K606A [15] = target: T7, CBP KIX K606A (UniProt P45481 586-665, limits assumed); assay: as above
T7 construct: domain: KIX

CBP KIX E655A [16] = target: T8, CBP KIX E655A (UniProt P45481 586-665, limits assumed); assay: as above
T8 construct: domain: KIX

CBP KIX I657A [17] = target: T9, CBP KIX I657A (UniProt P45481 586-665, limits assumed); assay: as above
T9 construct: domain: KIX; also called 1657A

CBP KIX Y658F [18] = target: T10, CBP KIX Y658F (UniProt P45481 586-665, limits assumed); assay: as above
T10 construct: domain: KIX

CBP KIX K662A [19] = target: T11, CBP KIX K662A (UniProt P45481 586-665, limits assumed); assay: as above
T11 construct: domain: KIX

CBP KIX LL652-3AA [20] = target: T12, CBP KIX LL652-3AA (UniProt P45481 586-665, limits assumed); assay: as above
T12 construct: domain: KIX

CBP KIX L603A [21] = target: T13, CBP KIX L603A (UniProt P45481 586-665, limits assumed); assay: as above
T13 construct: domain: KIX

[22] = target: T14, CBP KIX Y650A (Example 20) (UniProt P45481 586-665, limits assumed); assay: as above
T14 construct: domain: KIX

HisKIX [23] = target: T3, HisKIX; assay: FP, fluorescein-labelled peptide titrated with HisKIX, 25 C
CBP KIX Y658A [24] = target: T6, CBP KIX Y658A; assay: FP with CBP KIX variant (text value; Table 3 prints 3.9 ± 0.3)
HisKIX [25] = target: T3, HisKIX; assay: FP, fluorescein-labelled peptide titrated with HisKIX, 25 C; remark: listed apart in the source
[26] = target: T15, CBP KIX, wild type (Example 20) (UniProt P45481 586-665, limits assumed); assay: FP, fluorescein-labelled PPKID4^P titrated with CBP KIX
T15 construct: domain: KIX; also called wild type CBP KIX; CBP MX

[27] = target: T15, CBP KIX, wild type (Example 20); assay: FP, 25 nM fluorescein-labelled ligand titrated with CBP KIX, 25 C
CBP KIX L599A [28] = target: T16, CBP KIX L599A (UniProt P45481 586-665, limits assumed); assay: FP, 25 nM fluorescein-labelled ligand titrated with CBP KIX variant, 25 C
T16 construct: domain: KIX

CBP KIX Q661A [29] = target: T4, CBP KIX Q661A; assay: FP with CBP KIX variant
CBP KIX I660A [30] = target: T5, CBP KIX I660A; assay: FP with CBP KIX variant
CBP KIX Y658A [31] = target: T6, CBP KIX Y658A; assay: FP with CBP KIX variant
CBP KIX L599A [32] = target: T16, CBP KIX L599A; assay: FP with CBP KIX variant
CBP KIX K606A [33] = target: T7, CBP KIX K606A; assay: FP with CBP KIX variant
CBP KIX E655A [34] = target: T8, CBP KIX E655A; assay: FP with CBP KIX variant
CBP KIX I657A [35] = target: T9, CBP KIX I657A; assay: FP with CBP KIX variant
CBP KIX Y658F [36] = target: T10, CBP KIX Y658F; assay: FP with CBP KIX variant
CBP KIX K662A [37] = target: T11, CBP KIX K662A; assay: FP with CBP KIX variant
CBP KIX LL652-3AA [38] = target: T12, CBP KIX LL652-3AA; assay: FP with CBP KIX variant
CBP KIX L603A [39] = target: T13, CBP KIX L603A; assay: FP with CBP KIX variant
[40] = target: T14, CBP KIX Y650A (Example 20); assay: FP with CBP KIX variant
HisKIX [41] = target: T3, HisKIX; assay: FP with HisKIX; end of the range assigned by Table 1

T1 sequence (P10415 1-205): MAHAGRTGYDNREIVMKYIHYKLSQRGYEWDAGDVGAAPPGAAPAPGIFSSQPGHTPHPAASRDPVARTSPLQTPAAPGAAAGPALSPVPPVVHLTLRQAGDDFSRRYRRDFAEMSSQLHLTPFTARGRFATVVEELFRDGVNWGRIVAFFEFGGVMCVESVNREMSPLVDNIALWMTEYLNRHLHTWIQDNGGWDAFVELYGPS
T13 sequence (P45481 586-665 L603A limits assumed): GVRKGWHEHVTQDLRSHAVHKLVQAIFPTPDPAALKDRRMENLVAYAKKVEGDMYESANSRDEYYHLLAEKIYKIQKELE
T15 sequence (P45481 586-665 limits assumed): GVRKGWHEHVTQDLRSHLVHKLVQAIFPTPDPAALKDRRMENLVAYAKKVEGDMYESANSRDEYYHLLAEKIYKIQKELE
T12 sequence (P45481 other isoform, or with tags, fused parts or gaps limits assumed): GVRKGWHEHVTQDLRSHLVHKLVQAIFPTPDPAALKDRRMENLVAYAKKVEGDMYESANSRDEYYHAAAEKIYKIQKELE
T9 sequence (P45481 586-665 I657A limits assumed): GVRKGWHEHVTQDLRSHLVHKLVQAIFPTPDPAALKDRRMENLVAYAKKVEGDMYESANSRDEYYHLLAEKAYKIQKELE
T11 sequence (P45481 586-665 K662A limits assumed): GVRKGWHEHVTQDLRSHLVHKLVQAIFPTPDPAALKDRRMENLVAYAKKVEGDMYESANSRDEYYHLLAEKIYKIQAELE
T6 sequence (P45481 586-665 Y658A limits assumed): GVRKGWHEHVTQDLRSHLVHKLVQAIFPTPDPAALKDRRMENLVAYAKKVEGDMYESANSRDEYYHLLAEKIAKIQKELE
T16 sequence (P45481 586-665 L599A limits assumed): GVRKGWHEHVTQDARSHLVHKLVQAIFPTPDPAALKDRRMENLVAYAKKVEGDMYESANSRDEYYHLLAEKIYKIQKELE
T3 sequence (P45481 586-672): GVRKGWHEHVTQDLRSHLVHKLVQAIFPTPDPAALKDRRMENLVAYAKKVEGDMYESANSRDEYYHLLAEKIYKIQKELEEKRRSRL
T8 sequence (P45481 586-665 E655A limits assumed): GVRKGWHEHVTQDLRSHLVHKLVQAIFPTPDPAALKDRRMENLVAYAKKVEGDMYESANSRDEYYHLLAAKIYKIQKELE
T10 sequence (P45481 586-665 Y658F limits assumed): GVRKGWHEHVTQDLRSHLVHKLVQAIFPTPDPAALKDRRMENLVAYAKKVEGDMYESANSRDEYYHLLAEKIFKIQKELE
T5 sequence (P45481 586-665 I660A limits assumed): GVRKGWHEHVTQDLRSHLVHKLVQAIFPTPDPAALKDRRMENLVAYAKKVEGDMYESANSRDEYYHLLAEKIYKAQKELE
T7 sequence (P45481 586-665 K606A limits assumed): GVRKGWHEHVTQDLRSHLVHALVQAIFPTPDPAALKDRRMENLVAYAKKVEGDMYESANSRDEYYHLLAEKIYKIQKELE
T14 sequence (P45481 586-665 Y650A limits assumed): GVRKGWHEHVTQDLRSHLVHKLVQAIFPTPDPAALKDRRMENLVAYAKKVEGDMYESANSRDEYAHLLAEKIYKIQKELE
T4 sequence (P45481 586-665 Q661A limits assumed): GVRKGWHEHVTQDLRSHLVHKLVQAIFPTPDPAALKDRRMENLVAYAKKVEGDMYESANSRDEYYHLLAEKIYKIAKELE

Row | Binder | Kd [1] | Kd [2] | Kd (calmodulin (Sigma) [4]) | Krel = Kd (CalM)/Kd (HisKIX) (calmodulin (Sigma) [7]) | Kd (calmodulin (Sigma) [8]) | Kd [10] | Kd (CBP KIX Q661A [12]) | Kd (CBP KIX I660A [13]) | Kd (CBP KIX Y658A [14]) | Kd (CBP KIX K606A [15]) | Kd (CBP KIX E655A [16]) | Kd (CBP KIX I657A [17]) | Kd (CBP KIX Y658F [18]) | Kd (CBP KIX K662A [19]) | Kd (CBP KIX LL652-3AA [20]) | Kd (CBP KIX L603A [21]) | Kd [22] | Kd (HisKIX [23]) | Kd (HisKIX [25]) | Kd [27] | other results
1 | GPSQPTYPGDDAPVEDLIRFVGRLLAYFGDTINRYC(5‑iodoacetamidofluorescein)-NH2 (designed binder, also called p4121-flu (labelled form, by order and mass)) [p4099] | 352 nM | 8600 nM | 25000 nM | – | – | – | – | – | – | – | – | – | – | – | – | – | – | – | – | – | fold better binding than p4101 [3]: ~2 fold
2 | RRL[pS]FFYILLDLYLDAPGVC(acetamidofluorescein)-NH2 (Chimeric alpha-helical portion of the PPKID peptides (residues 15-33); also called Peptide C (phosphorylated)) [peptide C^P] | – | – | – | 74 | 178000 nM | – | – | – | – | – | – | – | – | – | – | – | – | – | – | – | Kd [5]: 97000 nM; fold increase in affinity over KID-B^P (HisKIX [6]): > 20 fold; fold lower affinity than PPKID4^P (HisKIX [6]): 5 fold; ΔΔG relative to KID-B^P (HisKIX [6]): -1.8 kcal/mol; fold lower affinity than PPKID4^P (calmodulin (Sigma) [9]): 4 fold
3 | GPSQPTYPGDDAPVRRL[pS]FFYILLDLYLDAPGVC(acetamidofluorescein)-NH2 (designed binder, also called PPKID4 (phosphorylated)) [PPKID4^P] | – | – | – | – | 52000 nM | 106000 nM | 1100 nM | 1100 nM | 3900 nM | 3100 nM | 540 nM | 2700 nM | 4100 nM | 3900 nM | 2900 nM | 3400 nM | 3000 nM | 515 nM | 515 nM | 610 nM | Kd (calmodulin (Sigma) [11]): 51000 nM; Kd (CBP KIX Y658A [24]): 4100 nM; Kd [26]: 610 nM
4 | GISWPTFEGDDAPVRRLSFFYILLDLYLDAPGVC(acetamidofluorescein)-NH2 (designed binder, also called PPKID6 (unphosphorylated)) [PPKID6^U] | – | – | – | > 112 | > 168000 nM | 79000 nM | 410 nM | 6100 nM | 1700 nM | 1200 nM | 1700 nM | 3600 nM | 2800 nM | 1800 nM | 140 nM | 2500 nM | 1300 nM | 1500 nM | 1500 nM | 540 nM | Kd (CBP KIX L599A [28]): 3300 nM; ΔΔG relative to wild type CBP KIX (CBP KIX Q661A [29]): -0.16 kcal/mol; ΔΔG relative to wild type CBP KIX (CBP KIX I660A [30]): 1.4 kcal/mol; ΔΔG relative to wild type CBP KIX (CBP KIX Y658A [31]): 0.68 kcal/mol; ΔΔG relative to wild type CBP KIX (CBP KIX L599A [32]): 1.1 kcal/mol; ΔΔG relative to wild type CBP KIX (CBP KIX K606A [33]): 0.47 kcal/mol; ΔΔG relative to wild type CBP KIX (CBP KIX E655A [34]): 0.68 kcal/mol; ΔΔG relative to wild type CBP KIX (CBP KIX I657A [35]): 1.1 kcal/mol; ΔΔG relative to wild type CBP KIX (CBP KIX Y658F [36]): 0.97 kcal/mol; ΔΔG relative to wild type CBP KIX (CBP KIX K662A [37]): 0.71 kcal/mol; ΔΔG relative to wild type CBP KIX (CBP KIX LL652-3AA [38]): -0.8 kcal/mol; ΔΔG relative to wild type CBP KIX (CBP KIX L603A [39]): 0.91 kcal/mol; ΔΔG relative to wild type CBP KIX [40]: 0.52 kcal/mol; fold enhancement in affinity over KID-AB^U (HisKIX [41]): ≥ 77 fold; fold enhancement in affinity over KID-B^U (HisKIX [41]): ≥ 198 fold; fold enhancement in affinity over peptide C^U (HisKIX [41]): 7 to 14 fold
5 | TDSQKRREILSRRP[pS]YRKILNDLSSDAPGVC-NH2 (also: C-terminal Cys acetamidofluorescein-labelled in direct assays, unlabelled as competitor, CREB KID residues 119-148 (A and B helices) plus a C-terminal Cys; also called KID-AB (phosphorylated); CREB KID^P) [KID-AB^P] | – | – | – | – | – | – | 930 nM | 270 nM | 142000 nM | 2300 nM | 710 nM | 1900 nM | 26000 nM | 4800 nM | 2900 nM | 3400 nM | 9400 nM | 562 nM | – | 410 nM | ΔΔG upon phosphorylation (HisKIX [6]): > 3.2 kcal/mol; Kd (CBP KIX L599A [28]): 1100 nM; ΔΔG relative to wild type CBP KIX (CBP KIX Q661A [29]): 0.48 kcal/mol; ΔΔG relative to wild type CBP KIX (CBP KIX I660A [30]): -0.26 kcal/mol; ΔΔG relative to wild type CBP KIX (CBP KIX Y658A [31]): 3.5 kcal/mol; ΔΔG relative to wild type CBP KIX (CBP KIX L599A [32]): 0.58 kcal/mol; ΔΔG relative to wild type CBP KIX (CBP KIX K606A [33]): 1 kcal/mol; ΔΔG relative to wild type CBP KIX (CBP KIX E655A [34]): 0.32 kcal/mol; ΔΔG relative to wild type CBP KIX (CBP KIX I657A [35]): 0.9 kcal/mol; ΔΔG relative to wild type CBP KIX (CBP KIX Y658F [36]): 2.5 kcal/mol; ΔΔG relative to wild type CBP KIX (CBP KIX K662A [37]): 1.5 kcal/mol; ΔΔG relative to wild type CBP KIX (CBP KIX LL652-3AA [38]): 1.2 kcal/mol; ΔΔG relative to wild type CBP KIX (CBP KIX L603A [39]): 1.2 kcal/mol; ΔΔG relative to wild type CBP KIX [40]: 1.8 kcal/mol
6 | GQVGRQLAIIGDDINRYC-NH2 (not fully specified (residue 18), Labelled form used for Kd determinations carries an additional carboxy-terminal YC; The printed mass (1724) looks too small for residues 72-94; also called Bak BH3 peptide; Bak (72-94)) [Bak peptide] | 363 nM | 22000 nM | 25000 nM | – | – | – | – | – | – | – | – | – | – | – | – | – | – | – | – | – | –
